{"source": "patent US20200078469A1", "about": "“HEPARIN-PEPTIDE BIOCONJUGATES AND USES THEREOF” (Symic IP, LLC, priority 2015, published 2020)", "molecules": {"B1": {"name": "Hep-SILY containing aggregates: Hep-SILY made with modified purification, containing ionically interacting non-covalently bound SILY peptide; high molecular weight aggregates (conjugate)", "peptide 1": "RRANAALKAGELYKSILYGSG", "peptide 2": "RRANAALKAGELYKSILYGSG", "peptide 3": "RRANAALKAGELYKSILYGSG", "modifications": "also: conjugated to heparin (glycan) via hydrazide-carbonyl linkage, non-covalent high molecular weight aggregates"}}, "biological_target": "collagen", "assay": "Collagen-binding plate assay", "details": "compared to Hep-SILY that does not contain aggregates", "method": "The following method is used to assess the binding affinity of bioconjugates disclosed herein for collagen. Similar assays are employed to assess binding affinity of other targets (e.g., hyaluronic acid, ICAM, VCAM, selectin).\nCollagen-binding of bioconjugate variants was compared by a plate-assay, in which collagen was coated on 96-well plates. Collagen was coated on high-bind plates at 50 μg/mL in 0.02 N acetic acid for 1 hour at room temperature. Unbound collagen was rinsed with 1×PBS pH 7.4. Plates were then blocked in 1% milk in 1×PBS solution for 1 hour at room temperature.\nBioconjugate variants containing biotinlyated peptides were dissolved to a final concentration of 1 mg/mL in 1% milk in 1×PBS pH 7.4. From this solution, a 10× serial dilution was performed. Molecules were then incubated on the blocked collagen-coated plates and incubated for 15 minutes at room temperature. Plates were then rinsed 3 times with 1×PBS in 1% BSA and 0.2% Tween20.\nBound molecules were detected by streptavidin-HRP, which was diluted 1:500 in 1×PBS with 1% BSA and 0.2% Tween20 and incubated 200 μL/well for 20 minutes at room temperature. Streptavidin solution was rinsed from the plates 3 times with 1×PBS with 0.2% Tween20. […] Absorbance in the well was then measured at 450 nm and binding affinity was plotted in a dose-response by absorbance vs. concentration.", "note": "Ends that are not written are not given here.", "data": [{"molecule": "B1", "values": [{"measurement": "collagen binding affinity (EC50)", "result": "higher affinity (lower EC50 values)"}]}]}
